B1: human TRPV3 single-cysteine construct A131C (cysteine-free background, K169A) (natural protein, UniProt Q8NET8 1-790, looked up)
chain: MKAHPKEMVPLMGKRVAAPSGNPAILPEKRPAEITPTKKSAHFFLEIEGFEPNPTVAKTSPPVFSKPMDSNIRQAISGNADDMDSPQSPQDDVTETPSNPNSPSAQLAKEEQRRKKRRLKKRIFAAVSEGCVEELVELLVELQELARRRHDEDVPDFLMHKLTASDTGATALMKALLNINPNTKEIVRILLAFAEENDILGRFINAEYTEEAYEGQTALNIAIERRQGDIAALLIAAGADVNAHAKGAFFNPKYQHEGFYFGETPLALAAATNQPEIVQLLMEHEQTDITSRDSRGNNILHALVTVAEDFKTQNDFVKRMYDMILLRSGNWELETTRNNDGLTPLQLAAKMGKAEILKYILSREIKEKRLRSLSRKFTDWAYGPVSSSLYDLTNVDTTTDNSVLEITVYNTNIDNRHEMLTLEPLHTLLHMKWKKFAKHMFFLSFLFYFFYNITLTLVSYYRPREEEAIPHPLALTHKMGWLQLLGRMFVLIWAMLISVKEGIAIFLLRPSDLQSILSDAWFHFVFFIQAVLVILSVFLYLFAYKEYLAFLVLAMALGWANMLYYTRGFQSMGMYSVMIQKVILHDVLKFLFVYIVFLLGFGVALASLIEKAPKDNKDASSYGSFSDAVLELFKLTIGLGDLNIQQNSKYPILFLFLLITYVILTFVLLLNMLIALMGETVENVSKESERIWRLQRARTILEFEKMLPEWLRSRFRMGELAKVAEDDFRLALRINEVKWTEWKTHVSFLNEDPGPVRRTDFNKIQDSSRNNSKTTLNAFEEVEEFPETSV
modifications: C131 labelled with sulfo-Cy3 maleimide or sulfo-Cy5 maleimide (1:1 mixture) in the FRET samples
notes: human TRPV3, full length; printed as A131C on the cysteine-free construct, so the native C131 stands again and the other 12 cysteines are replaced; K169A added; Homotetrameric channel in DDM/CHS with lipids; also called hTRPV3 A131C; ARD construct; source: Sf9 cells, baculovirus (Bac-to-Bac), purified (DDM/CHS solubilisation, anti-FLAG resin)
B2: human TRPV3 single-cysteine construct A721C (cysteine-free background, K169A) (natural protein, UniProt Q8NET8 1-790, looked up)
chain: MKAHPKEMVPLMGKRVAAPSGNPAILPEKRPAEITPTKKSAHFFLEIEGFEPNPTVAKTSPPVFSKPMDSNIRQAISGNADDMDSPQSPQDDVTETPSNPNSPSAQLAKEEQRRKKRRLKKRIFAAVSEGAVEELVELLVELQELARRRHDEDVPDFLMHKLTASDTGATALMKALLNINPNTKEIVRILLAFAEENDILGRFINAEYTEEAYEGQTALNIAIERRQGDIAALLIAAGADVNAHAKGAFFNPKYQHEGFYFGETPLALAAATNQPEIVQLLMEHEQTDITSRDSRGNNILHALVTVAEDFKTQNDFVKRMYDMILLRSGNWELETTRNNDGLTPLQLAAKMGKAEILKYILSREIKEKRLRSLSRKFTDWAYGPVSSSLYDLTNVDTTTDNSVLEITVYNTNIDNRHEMLTLEPLHTLLHMKWKKFAKHMFFLSFLFYFFYNITLTLVSYYRPREEEAIPHPLALTHKMGWLQLLGRMFVLIWAMLISVKEGIAIFLLRPSDLQSILSDAWFHFVFFIQAVLVILSVFLYLFAYKEYLAFLVLAMALGWANMLYYTRGFQSMGMYSVMIQKVILHDVLKFLFVYIVFLLGFGVALASLIEKAPKDNKDASSYGSFSDAVLELFKLTIGLGDLNIQQNSKYPILFLFLLITYVILTFVLLLNMLIALMGETVENVSKESERIWRLQRARTILEFEKMLPEWLRSRFRMGELCKVAEDDFRLALRINEVKWTEWKTHVSFLNEDPGPVRRTDFNKIQDSSRNNSKTTLNAFEEVEEFPETSV
modifications: C721 labelled with sulfo-Cy3 maleimide or sulfo-Cy5 maleimide (1:1 mixture) in the FRET samples
notes: human TRPV3, full length; printed as A721C on the cysteine-free construct, so the native C721 stands again and the other 12 cysteines are replaced; K169A added; Homotetrameric channel in DDM/CHS with lipids; also called hTRPV3 A721C; C-terminal domain construct; source: Sf9 cells, baculovirus (Bac-to-Bac), purified (DDM/CHS solubilisation, anti-FLAG resin)
B3: human TRPV3 single-cysteine construct L513C (cysteine-free background, K169A) (natural protein, UniProt Q8NET8 1-790, looked up)
chain: MKAHPKEMVPLMGKRVAAPSGNPAILPEKRPAEITPTKKSAHFFLEIEGFEPNPTVAKTSPPVFSKPMDSNIRQAISGNADDMDSPQSPQDDVTETPSNPNSPSAQLAKEEQRRKKRRLKKRIFAAVSEGAVEELVELLVELQELARRRHDEDVPDFLMHKLTASDTGATALMKALLNINPNTKEIVRILLAFAEENDILGRFINAEYTEEAYEGQTALNIAIERRQGDIAALLIAAGADVNAHAKGAFFNPKYQHEGFYFGETPLALAAATNQPEIVQLLMEHEQTDITSRDSRGNNILHALVTVAEDFKTQNDFVKRMYDMILLRSGNWELETTRNNDGLTPLQLAAKMGKAEILKYILSREIKEKRLRSLSRKFTDWAYGPVSSSLYDLTNVDTTTDNSVLEITVYNTNIDNRHEMLTLEPLHTLLHMKWKKFAKHMFFLSFLFYFFYNITLTLVSYYRPREEEAIPHPLALTHKMGWLQLLGRMFVLIWAMLISVKEGIAIFLLRPSDCQSILSDAWFHFVFFIQAVLVILSVFLYLFAYKEYLAFLVLAMALGWANMLYYTRGFQSMGMYSVMIQKVILHDVLKFLFVYIVFLLGFGVALASLIEKAPKDNKDASSYGSFSDAVLELFKLTIGLGDLNIQQNSKYPILFLFLLITYVILTFVLLLNMLIALMGETVENVSKESERIWRLQRARTILEFEKMLPEWLRSRFRMGELAKVAEDDFRLALRINEVKWTEWKTHVSFLNEDPGPVRRTDFNKIQDSSRNNSKTTLNAFEEVEEFPETSV
modifications: C513 labelled with sulfo-Cy3 maleimide or sulfo-Cy5 maleimide (1:1 mixture) in the FRET samples
notes: human TRPV3, full length; all 13 native cysteines replaced, L513C and K169A added; Homotetrameric channel in DDM/CHS with lipids; also called hTRPV3 L513C; S2-S3 linker construct; source: Sf9 cells, baculovirus (Bac-to-Bac), purified (DDM/CHS solubilisation, anti-FLAG resin)
B4: human TRPV3 single-cysteine construct A619C (cysteine-free background, K169A) (natural protein, UniProt Q8NET8 1-790, looked up)
chain: MKAHPKEMVPLMGKRVAAPSGNPAILPEKRPAEITPTKKSAHFFLEIEGFEPNPTVAKTSPPVFSKPMDSNIRQAISGNADDMDSPQSPQDDVTETPSNPNSPSAQLAKEEQRRKKRRLKKRIFAAVSEGAVEELVELLVELQELARRRHDEDVPDFLMHKLTASDTGATALMKALLNINPNTKEIVRILLAFAEENDILGRFINAEYTEEAYEGQTALNIAIERRQGDIAALLIAAGADVNAHAKGAFFNPKYQHEGFYFGETPLALAAATNQPEIVQLLMEHEQTDITSRDSRGNNILHALVTVAEDFKTQNDFVKRMYDMILLRSGNWELETTRNNDGLTPLQLAAKMGKAEILKYILSREIKEKRLRSLSRKFTDWAYGPVSSSLYDLTNVDTTTDNSVLEITVYNTNIDNRHEMLTLEPLHTLLHMKWKKFAKHMFFLSFLFYFFYNITLTLVSYYRPREEEAIPHPLALTHKMGWLQLLGRMFVLIWAMLISVKEGIAIFLLRPSDLQSILSDAWFHFVFFIQAVLVILSVFLYLFAYKEYLAFLVLAMALGWANMLYYTRGFQSMGMYSVMIQKVILHDVLKFLFVYIVFLLGFGVALASLIEKAPKDNKDCSSYGSFSDAVLELFKLTIGLGDLNIQQNSKYPILFLFLLITYVILTFVLLLNMLIALMGETVENVSKESERIWRLQRARTILEFEKMLPEWLRSRFRMGELAKVAEDDFRLALRINEVKWTEWKTHVSFLNEDPGPVRRTDFNKIQDSSRNNSKTTLNAFEEVEEFPETSV
modifications: C619 labelled with sulfo-Cy3 maleimide or sulfo-Cy5 maleimide (1:1 mixture) in the FRET samples
notes: human TRPV3, full length; printed as A619C on the cysteine-free construct, so the native C619 stands again and the other 12 cysteines are replaced; K169A added; Homotetrameric channel in DDM/CHS with lipids; also called hTRPV3 A619C; pore turret construct; source: Sf9 cells, baculovirus (Bac-to-Bac), purified (DDM/CHS solubilisation, anti-FLAG resin)

As usually defined, the stoichiometry N is a count of units in the complex or per binding partner.

The series concerns the molecule itself. The series can be described thus: SEC; fluorescence-detection size-exclusion chromatography (FSEC); heat-treated (42 °C) samples of each construct compared with a heat-untreated sample. In general terms: In gel filtration, larger molecules generally elute earlier.
Take B1: the “stoichiometry N” value is 4. For the protein B2, the “stoichiometry N” value came to 4. Take B3: the “stoichiometry N” value came out at 4. The same measure for B4: 4.

For the origin of these results see PMC10284872, “FRET analysis of the temperature-induced structural changes in human TRPV3” (Scientific Reports, 2023).
